{"source": "paper PMC11095200", "target": "StAR (UniProt P51557)", "test": "co-immunoprecipitation and western blot", "conditions": "reference: wild-type 14-3-3γ; sites S71", "data": [{"substance": "14-3-3γ (from UniProt P61982) S71A 14-3-3γ", "values": [{"measurement": "binding against the reference", "value": "weaker"}]}]}
